# From patent US20230062308A1, “TREATMENT OF CK8 POSITIVE CANCERS IN RELATION WITH K-RAS GENE STATUS” (INTERNATIONAL - DRUG - DEVELOPMENT - BIOTECH, priority 2017, published 2023)
# Residue numbers refer to the chain shown, from its start.
# B1: D-A10: murine anti-CK8 monoclonal antibody (IgG2b); VL SEQ ID NO: 2, VH SEQ ID NO: 4 (antibody, V domains shown)
# VH: EVQLLETGGGLVQPGGSRGLSCEGSGFTFSGFWMSWVRQTPGKTLEWIGDINSDGSAIKYAPSIKDRFTIFRDNDKSTLYLQMSNVRSEDTATYFCIAHYSGGGFAYWGQGTSVTVSS
# VL: NIVMTQAAPSVPVTPGESVSISCRSSKSLLYSNGNTYLYWFLQRPGQSPQRLIYYMSNLASGVPDRFSGRGSGTDFTLRISRVEAEDVGVYYCMQSLEYPFTFGGGTKLEIK
# modifications: VH mD-A10; VLmD-A10
# B2: D-F5: murine anti-CK8 monoclonal antibody (IgG2a); VL SEQ ID NO: 40, VH SEQ ID NO: 42 (antibody, V domains shown)
# VH: QVQLKESGPGLVAPSQSLSITCTVSGFSLTSYGVHWVRQPPGKGLEWLGVIWAGGSTNYNSALMSRLRISKDNSKSQVFLKMNSLQTDDTAMYYCARIYGNYGRFAYWGQGTSVTVSS
# VL: DVVMTQTPLSLPVSLGDQASISCRSSQSIVHSNGNTYLEWYLQKPGQSPKLLIYKVSNRLSGVPDRFSGSGSGTDFTLKISRVEAEDLGVYYCFQGSLVPLTFGGGTKLEIK
# modifications: VH-mR022 (D-F5); VL-mR022 (D-F5)
# B3: D-D6: murine anti-CK8 monoclonal antibody (IgG1); VL SEQ ID NO: 36, VH SEQ ID NO: 38 (antibody, V domains shown)
# VH: DVQLQESGPGLVKPSQSLSLTCTVTGYSITSDYAWNWIRQFPGNKLEWMGYISYSGRTSYNPSLKSRISITRDTSKNHFFLQLNSVTTEDTATYYCAPLTTGVGYAMDYWGQGTSVTVSS
# VL: B2 VL with I29L, E39H, L51V, L60F, Y92F, F94S, G96S, S97T, L98H, L101F
# modifications: VH-mR022 (D-D6); VL-mR022 (D-D6)
# What was measured:
# [1] = tested on: Human HAN larynx cell line BICR18; experiment: In vivo tumour growth, HAN CDX model (larynx cell line BICR18); conditions: BICR18 s.c. in SCID mice; HzR022 (D-A10) 10 mg/kg i.p. BIW × 3; cisplatin 2.5 mg/kg i.p. QW × 3
# Experimental: Human HAN larynx cell line BICR18 was subcutaneously injected in SCID mice, with a concentration of 1.10^6 cells per injection (200 μL). Mice were randomized when the tumours reached a mean volume of about 100 mm^3 for the 9 groups (total 45 mice). […] The endpoint was defined by animal ethics as a tumour diameter of >18 mm, significant weight loss or alteration of animal well-being. In order to assess the effectiveness of the compounds on tumourigenesis, tumour volume was measured two times a week. The size of the primary tumours were measured using calipers and the tumour volume (TV) was extrapolated to a sphere using the formula TV= 4/3π×r^3, by calculating the mean radius from the two measurements. The median and standard deviation were also calculated for each group. Median is preferred to mean in order to exclude the extreme values. MAb treatment was administered by intraperitoneal injection twice a week during three weeks at 10 or 1 mg/kg doses. The cisplatin (Myland) treatment was administered by intraperitoneal injection once per week during three weeks at 1, 2.5 or 5 mg/kg doses. The product was prepared in accordance with the sponsor's guidelines, i.e. diluted in PBS. Mice were sacrificed when the tumours reached a maximum volume of 1600 mm^3. […] The t-test (two-tailed test) was performed on the tumour volume values (mm^3) measured on the day of sacrifice.
# CK8 = target: T1, CK8 (Homo sapiens, UniProt P05787); experiment: Antibody internalisation assay by flow cytometry; type: cell-based; parameters: methods to investigate on CK8 cellular expression at the cell surface analysed by flow cytometry; endogenous in cells; conditions: 4° C. versus 37° C., 24 hours; 0.78 or 0.39 μg/mL; HCT116, U87MG, BICR56, BxPC3, DU145 cell lines (FIG. 4-6)
# T1 sequence (P05787 1-483): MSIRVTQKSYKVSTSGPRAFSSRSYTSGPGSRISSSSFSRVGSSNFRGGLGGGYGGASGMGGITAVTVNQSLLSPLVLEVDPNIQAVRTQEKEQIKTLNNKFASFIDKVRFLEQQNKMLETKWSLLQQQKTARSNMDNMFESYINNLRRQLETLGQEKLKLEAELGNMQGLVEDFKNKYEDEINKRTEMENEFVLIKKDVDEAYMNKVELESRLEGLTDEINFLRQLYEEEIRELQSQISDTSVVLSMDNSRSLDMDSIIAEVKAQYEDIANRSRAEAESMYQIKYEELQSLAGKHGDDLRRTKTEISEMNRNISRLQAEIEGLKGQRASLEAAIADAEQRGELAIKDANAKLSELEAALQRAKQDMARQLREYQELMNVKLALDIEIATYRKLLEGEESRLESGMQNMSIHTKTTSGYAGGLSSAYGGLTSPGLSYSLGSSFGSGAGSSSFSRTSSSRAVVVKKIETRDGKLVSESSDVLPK
# Experimental: This example describes methods to investigate on HzR022 (D-A10) internalisation following CK8 detection at the cell surface analysed by flow cytometry.
# Flow cytometry experiments for MAb internalisation. Briefly, 2.10^5 cells per 96 wells are incubated at 4° C. versus 37° C. during 24 hours with a dilution of unconjugated murine anti CK8 MAb at 50 μg/mL then diluted at ½. The MAb anti CK8 tested were D-A10 (IgG2b), D-F5 (IgG2a) or D-D6 (IgG1), from iDD biotech MAb panel. The isotype matched MAbs used were B-Z1 (IgG1), B-Z2 (IgG2a) or B-E4 (IgG2b) (Diaclone, Besancon, France). Unbound antibodies were washed away with PBS (Life technologies, St Aubin, France) supplemented by 1% Bovine Serum Albumin (Sigma, St Quentin Fallavier, France). Subsequently, cells are centrifuged (5 min at 400 g) and bound antibody is detected with Fluorescein Isothiocyanate (FITC) conjugated goat (Fab′)2 polyclonal anti mouse Ig (MP Biomedical, Illkirch, France) at 4° C. for 30 min. Detection reagent is washed away and cells are centrifuged (5 min at 400 g) and suspended in 300 μL PBS. Bound detection antibody is quantified on a FACSCAN (BD Biosciences, Rungis, France), (FL1 channel, 3 000 events per acquisition). During the experiment, the respective isotype controls are included to exclude any unspecific binding events
# Results of experiments are shown in FIG. 4 for D-A10 MAb (at 0.78 or 0.39 μg/mL), in FIG. 5 for D-D6 (at 0.78 or 0.39 μg/mL), in FIG. 6 for D-F5 (at 0.78 or 0.39 μg/mL). One example was shown for CRC from HCT116 cell line, GBM from U87MG cell line, HAN from BIRC56 cell line, PC from BxPC3 or PRC from DU145.
Molecule,"tumour growth control (tumour volume, FIG. 3) [1]",internalization potential (CK8)
"N.N.[Cl][Pt][Cl] [cisplatin, reference compound]",rapid cisplatin escape,
B1,,highest internalization potential
B2,,lower internalization potential
B3,,highest internalization potential
